Read-outs that look alike come from different tables or passages of the source.
Tests used:
ParB-eGFP (Spo0J) [1] = molecular target: T1, ParB-eGFP (Spo0J) (Bacillus subtilis, UniProt P26497 1-282); assay: single-molecule colocalization with lambda DNA
T1 sequence: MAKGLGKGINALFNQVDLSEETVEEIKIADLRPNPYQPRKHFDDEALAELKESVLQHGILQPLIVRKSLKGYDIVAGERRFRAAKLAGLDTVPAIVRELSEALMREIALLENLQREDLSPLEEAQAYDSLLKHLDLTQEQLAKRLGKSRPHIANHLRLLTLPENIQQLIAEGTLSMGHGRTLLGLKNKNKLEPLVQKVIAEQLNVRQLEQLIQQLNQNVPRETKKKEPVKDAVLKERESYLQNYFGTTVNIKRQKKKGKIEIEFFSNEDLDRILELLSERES

ParB-eGFP (Spo0J) [2] = molecular target: T1, ParB-eGFP (Spo0J); assay: single-molecule colocalization with lambda DNA; remark: listed apart in the source

B1: ns-oligo-Cy5 (58 bp) (dsDNA)
DNA 1: CGAAGGCTACGTCCAGGAGCGCACCATCTTCTTCAAGGACGACGGCAACTACAAGACC
DNA 2: GGTCTTGTAGTTGCCGTCGTCCTTGAAGAAGATGGTGCGCTCCTGGACGTAGCCTTCG
Q: B1 was tested. Which binding signal (ParB-eGFP (Spo0J) [1]) did it give?
A: Its binding signal is ~2 fold shorter lifetime than parS-oligo.

Q: What about the binding signal (ParB-eGFP (Spo0J) [2]) of the same binder?
A: The binding signal was ~3 fold fewer multimer-oligo complexes than parS-oligo.

Reference: paper PMC9458438
